Reference: patent US20140087995A1 (published 2014)
Numbered stars: 1 amine (or outer) side, 2 acyl side, 3 side chain; on linkers, the order of the positions; unused ones are H or OH. Bridge positions count the residues as written; N and C are the ends. Side chains are listed from the residue outwards. Ends that are not written are not given here. * marks the point of attachment. C20 diacid = O=C(O)CCCCCCCCCCCCCCCCCCC(=O)*; γGlu = O=C(O)[C@H](CCC(=O)[*:2])N[*:1]; AEEA = NCCOCCOCC(=O)O

T1: human amylin receptor (amylin 3(a) receptor: human calcitonin receptor co-expressed with RAMP-3) (human, UniProt P30988 25-474; O60896 24-148, limits assumed)
T1 sequence (looked up) 1: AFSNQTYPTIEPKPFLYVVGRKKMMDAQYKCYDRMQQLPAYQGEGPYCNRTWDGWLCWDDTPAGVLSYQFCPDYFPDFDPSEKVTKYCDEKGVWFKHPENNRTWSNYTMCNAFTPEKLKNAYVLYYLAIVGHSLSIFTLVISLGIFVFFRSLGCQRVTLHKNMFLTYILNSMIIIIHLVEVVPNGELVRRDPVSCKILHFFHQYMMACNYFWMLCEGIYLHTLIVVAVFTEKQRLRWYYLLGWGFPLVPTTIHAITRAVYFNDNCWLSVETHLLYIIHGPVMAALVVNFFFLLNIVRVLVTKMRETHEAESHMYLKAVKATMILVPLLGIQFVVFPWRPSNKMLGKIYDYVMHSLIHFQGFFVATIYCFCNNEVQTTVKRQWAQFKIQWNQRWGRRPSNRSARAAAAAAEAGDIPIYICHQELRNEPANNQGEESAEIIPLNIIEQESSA
T1 sequence (looked up) 2: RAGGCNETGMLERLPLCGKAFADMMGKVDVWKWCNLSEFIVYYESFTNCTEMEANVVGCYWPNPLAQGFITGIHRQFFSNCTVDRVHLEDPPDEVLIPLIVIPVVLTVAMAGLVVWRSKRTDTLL

T2: human calcitonin receptor (human, UniProt P30988 25-474)
T2 sequence (looked up): T1 sequence (looked up) 1

B1: N^ε1-[2-[2-[2-[[(4S)-4-carboxy-4-(19-carboxynonadecanoylamino)butanoyl]amino]ethoxy]ethoxy]acetyl]-[Arg17,Pro21,Pro27,Pro29,Pro31]-h-amylin (peptide)
peptide: K([AEEA-γGlu-C20 diacid])CNTATCATQRLANFLRHSSPNFGAIPSPTPVGSNTY-NH2
modifications: disulfide 2-7; N-terminus assumed
SMILES: CC[C@H](C)[C@H](NC(=O)[C@H](C)NC(=O)CNC(=O)[C@H](Cc1ccccc1)NC(=O)[C@H](CC(N)=O)NC(=O)[C@@H]1CCCN1C(=O)[C@H](CO)NC(=O)[C@H](CO)NC(=O)[C@H](Cc1c[nH]cn1)NC(=O)[C@H](CCCNC(=N)N)NC(=O)[C@H](CC(C)C)NC(=O)[C@H](Cc1ccccc1)NC(=O)[C@H](CC(N)=O)NC(=O)[C@H](C)NC(=O)[C@H](CC(C)C)NC(=O)[C@H](CCCNC(=N)N)NC(=O)[C@H](CCC(N)=O)NC(=O)[C@@H](NC(=O)[C@H](C)NC(=O)[C@@H]1CSSC[C@H](NC(=O)[C@@H](N)CCCCNC(=O)COCCOCCNC(=O)CC[C@H](NC(=O)CCCCCCCCCCCCCCCCCCC(=O)O)C(=O)O)C(=O)N[C@@H](CC(N)=O)C(=O)N[C@@H]([C@@H](C)O)C(=O)N[C@@H](C)C(=O)N[C@@H]([C@@H](C)O)C(=O)N1)[C@@H](C)O)C(=O)N1CCC[C@H]1C(=O)N[C@@H](CO)C(=O)N1CCC[C@H]1C(=O)N[C@H](C(=O)N1CCC[C@H]1C(=O)N[C@H](C(=O)NCC(=O)N[C@@H](CO)C(=O)N[C@@H](CC(N)=O)C(=O)N[C@H](C(=O)N[C@@H](Cc1ccc(O)cc1)C(N)=O)[C@@H](C)O)C(C)C)[C@@H](C)O
notes: also called compound 54
B2: N^ε1-[2-[2-[2-[[(4S)-4-carboxy-4-(19-carboxynonadecanoylamino)butanoyl]amino]ethoxy]ethoxy]acetyl]-[Arg17,Pro21,Pro27,Pro34,His35]-h-amylin (peptide)
peptide: K([AEEA-γGlu-C20 diacid])CNTATCATQRLANFLRHSSPNFGAIPSSTNVGPHTY-NH2
modifications: disulfide 2-7; N-terminus assumed
SMILES: CC[C@H](C)[C@H](NC(=O)[C@H](C)NC(=O)CNC(=O)[C@H](Cc1ccccc1)NC(=O)[C@H](CC(N)=O)NC(=O)[C@@H]1CCCN1C(=O)[C@H](CO)NC(=O)[C@H](CO)NC(=O)[C@H](Cc1c[nH]cn1)NC(=O)[C@H](CCCNC(=N)N)NC(=O)[C@H](CC(C)C)NC(=O)[C@H](Cc1ccccc1)NC(=O)[C@H](CC(N)=O)NC(=O)[C@H](C)NC(=O)[C@H](CC(C)C)NC(=O)[C@H](CCCNC(=N)N)NC(=O)[C@H](CCC(N)=O)NC(=O)[C@@H](NC(=O)[C@H](C)NC(=O)[C@@H]1CSSC[C@H](NC(=O)[C@@H](N)CCCCNC(=O)COCCOCCNC(=O)CC[C@H](NC(=O)CCCCCCCCCCCCCCCCCCC(=O)O)C(=O)O)C(=O)N[C@@H](CC(N)=O)C(=O)N[C@@H]([C@@H](C)O)C(=O)N[C@@H](C)C(=O)N[C@@H]([C@@H](C)O)C(=O)N1)[C@@H](C)O)C(=O)N1CCC[C@H]1C(=O)N[C@@H](CO)C(=O)N[C@@H](CO)C(=O)N[C@H](C(=O)N[C@@H](CC(N)=O)C(=O)N[C@H](C(=O)NCC(=O)N1CCC[C@H]1C(=O)N[C@@H](Cc1c[nH]cn1)C(=O)N[C@H](C(=O)N[C@@H](Cc1ccc(O)cc1)C(N)=O)[C@@H](C)O)C(C)C)[C@@H](C)O
notes: also called compound 58
B3: N^ε1-[2-[2-[2-[[(4S)-4-carboxy-4-(19-carboxynonadecanoylamino)butanoyl]amino]ethoxy]ethoxy]acetyl]-[Arg17,Pro21,Pro27,Pro29,Pro34]-h-amylin (peptide)
peptide: K([AEEA-γGlu-C20 diacid])CNTATCATQRLANFLRHSSPNFGAIPSPTNVGPNTY-NH2
modifications: disulfide 2-7; N-terminus assumed
SMILES: CC[C@H](C)[C@H](NC(=O)[C@H](C)NC(=O)CNC(=O)[C@H](Cc1ccccc1)NC(=O)[C@H](CC(N)=O)NC(=O)[C@@H]1CCCN1C(=O)[C@H](CO)NC(=O)[C@H](CO)NC(=O)[C@H](Cc1c[nH]cn1)NC(=O)[C@H](CCCNC(=N)N)NC(=O)[C@H](CC(C)C)NC(=O)[C@H](Cc1ccccc1)NC(=O)[C@H](CC(N)=O)NC(=O)[C@H](C)NC(=O)[C@H](CC(C)C)NC(=O)[C@H](CCCNC(=N)N)NC(=O)[C@H](CCC(N)=O)NC(=O)[C@@H](NC(=O)[C@H](C)NC(=O)[C@@H]1CSSC[C@H](NC(=O)[C@@H](N)CCCCNC(=O)COCCOCCNC(=O)CC[C@H](NC(=O)CCCCCCCCCCCCCCCCCCC(=O)O)C(=O)O)C(=O)N[C@@H](CC(N)=O)C(=O)N[C@@H]([C@@H](C)O)C(=O)N[C@@H](C)C(=O)N[C@@H]([C@@H](C)O)C(=O)N1)[C@@H](C)O)C(=O)N1CCC[C@H]1C(=O)N[C@@H](CO)C(=O)N1CCC[C@H]1C(=O)N[C@H](C(=O)N[C@@H](CC(N)=O)C(=O)N[C@H](C(=O)NCC(=O)N1CCC[C@H]1C(=O)N[C@@H](CC(N)=O)C(=O)N[C@H](C(=O)N[C@@H](Cc1ccc(O)cc1)C(N)=O)[C@@H](C)O)C(C)C)[C@@H](C)O
notes: also called compound 56
B4: N^ε1-[2-[2-[2-[[(4S)-4-carboxy-4-(19-carboxynonadecanoylamino)butanoyl]amino]ethoxy]ethoxy]acetyl]-[Arg17,Pro21,Pro27,Pro34]-h-amylin (peptide)
peptide: K([AEEA-γGlu-C20 diacid])CNTATCATQRLANFLRHSSPNFGAIPSSTNVGPNTY-NH2
modifications: disulfide 2-7; N-terminus assumed
SMILES: CC[C@H](C)[C@H](NC(=O)[C@H](C)NC(=O)CNC(=O)[C@H](Cc1ccccc1)NC(=O)[C@H](CC(N)=O)NC(=O)[C@@H]1CCCN1C(=O)[C@H](CO)NC(=O)[C@H](CO)NC(=O)[C@H](Cc1c[nH]cn1)NC(=O)[C@H](CCCNC(=N)N)NC(=O)[C@H](CC(C)C)NC(=O)[C@H](Cc1ccccc1)NC(=O)[C@H](CC(N)=O)NC(=O)[C@H](C)NC(=O)[C@H](CC(C)C)NC(=O)[C@H](CCCNC(=N)N)NC(=O)[C@H](CCC(N)=O)NC(=O)[C@@H](NC(=O)[C@H](C)NC(=O)[C@@H]1CSSC[C@H](NC(=O)[C@@H](N)CCCCNC(=O)COCCOCCNC(=O)CC[C@H](NC(=O)CCCCCCCCCCCCCCCCCCC(=O)O)C(=O)O)C(=O)N[C@@H](CC(N)=O)C(=O)N[C@@H]([C@@H](C)O)C(=O)N[C@@H](C)C(=O)N[C@@H]([C@@H](C)O)C(=O)N1)[C@@H](C)O)C(=O)N1CCC[C@H]1C(=O)N[C@@H](CO)C(=O)N[C@@H](CO)C(=O)N[C@H](C(=O)N[C@@H](CC(N)=O)C(=O)N[C@H](C(=O)NCC(=O)N1CCC[C@H]1C(=O)N[C@@H](CC(N)=O)C(=O)N[C@H](C(=O)N[C@@H](Cc1ccc(O)cc1)C(N)=O)[C@@H](C)O)C(C)C)[C@@H](C)O
notes: also called compound 50
B5: N^ε1-[2-[2-[2-[[(4S)-4-carboxy-4-(19-carboxynonadecanoylamino)butanoyl]amino]ethoxy]ethoxy]acetyl]-[Arg17,Pro21,Pro27,Pro31]-h-amylin (peptide)
peptide: K([AEEA-γGlu-C20 diacid])CNTATCATQRLANFLRHSSPNFGAIPSSTPVGSNTY-NH2
modifications: disulfide 2-7; N-terminus assumed
SMILES: CC[C@H](C)[C@H](NC(=O)[C@H](C)NC(=O)CNC(=O)[C@H](Cc1ccccc1)NC(=O)[C@H](CC(N)=O)NC(=O)[C@@H]1CCCN1C(=O)[C@H](CO)NC(=O)[C@H](CO)NC(=O)[C@H](Cc1c[nH]cn1)NC(=O)[C@H](CCCNC(=N)N)NC(=O)[C@H](CC(C)C)NC(=O)[C@H](Cc1ccccc1)NC(=O)[C@H](CC(N)=O)NC(=O)[C@H](C)NC(=O)[C@H](CC(C)C)NC(=O)[C@H](CCCNC(=N)N)NC(=O)[C@H](CCC(N)=O)NC(=O)[C@@H](NC(=O)[C@H](C)NC(=O)[C@@H]1CSSC[C@H](NC(=O)[C@@H](N)CCCCNC(=O)COCCOCCNC(=O)CC[C@H](NC(=O)CCCCCCCCCCCCCCCCCCC(=O)O)C(=O)O)C(=O)N[C@@H](CC(N)=O)C(=O)N[C@@H]([C@@H](C)O)C(=O)N[C@@H](C)C(=O)N[C@@H]([C@@H](C)O)C(=O)N1)[C@@H](C)O)C(=O)N1CCC[C@H]1C(=O)N[C@@H](CO)C(=O)N[C@@H](CO)C(=O)N[C@H](C(=O)N1CCC[C@H]1C(=O)N[C@H](C(=O)NCC(=O)N[C@@H](CO)C(=O)N[C@@H](CC(N)=O)C(=O)N[C@H](C(=O)N[C@@H](Cc1ccc(O)cc1)C(N)=O)[C@@H](C)O)C(C)C)[C@@H](C)O
notes: also called compound 49
B6: N^ε1-[2-[2-[2-[[(4S)-4-carboxy-4-(19-carboxynonadecanoylamino)butanoyl]amino]ethoxy]ethoxy]acetyl]-[Arg17,Pro21,Pro27,Pro31,His35]-h-amylin (peptide)
peptide: K([AEEA-γGlu-C20 diacid])CNTATCATQRLANFLRHSSPNFGAIPSSTPVGSHTY-NH2
modifications: disulfide 2-7; N-terminus assumed
SMILES: CC[C@H](C)[C@H](NC(=O)[C@H](C)NC(=O)CNC(=O)[C@H](Cc1ccccc1)NC(=O)[C@H](CC(N)=O)NC(=O)[C@@H]1CCCN1C(=O)[C@H](CO)NC(=O)[C@H](CO)NC(=O)[C@H](Cc1c[nH]cn1)NC(=O)[C@H](CCCNC(=N)N)NC(=O)[C@H](CC(C)C)NC(=O)[C@H](Cc1ccccc1)NC(=O)[C@H](CC(N)=O)NC(=O)[C@H](C)NC(=O)[C@H](CC(C)C)NC(=O)[C@H](CCCNC(=N)N)NC(=O)[C@H](CCC(N)=O)NC(=O)[C@@H](NC(=O)[C@H](C)NC(=O)[C@@H]1CSSC[C@H](NC(=O)[C@@H](N)CCCCNC(=O)COCCOCCNC(=O)CC[C@H](NC(=O)CCCCCCCCCCCCCCCCCCC(=O)O)C(=O)O)C(=O)N[C@@H](CC(N)=O)C(=O)N[C@@H]([C@@H](C)O)C(=O)N[C@@H](C)C(=O)N[C@@H]([C@@H](C)O)C(=O)N1)[C@@H](C)O)C(=O)N1CCC[C@H]1C(=O)N[C@@H](CO)C(=O)N[C@@H](CO)C(=O)N[C@H](C(=O)N1CCC[C@H]1C(=O)N[C@H](C(=O)NCC(=O)N[C@@H](CO)C(=O)N[C@@H](Cc1c[nH]cn1)C(=O)N[C@H](C(=O)N[C@@H](Cc1ccc(O)cc1)C(N)=O)[C@@H](C)O)C(C)C)[C@@H](C)O
notes: also called compound 57

The binders below were run against T1, human amylin receptor (amylin 3(a) …) (assay: cell-based or functional assay).

| Binder | hAmylin-R funct. EC50 [pM] |
| --- | --- |
| B1 | 103 |
| B2 | 47 |
| B3 | 102 |
| B4 | 38 |
| B5 | 106 |
| B6 | 89 |

These binders were tested against T2, human calcitonin receptor (assay: cell-based or functional assay).

| Binder | Ratio hCT/hAmylin funct. (hCTR EC50 against hAmylin-R EC50) | hCTR funct. EC50 [pM] |
| --- | --- | --- |
| B1 | 9.6 | 987 |
| B2 | 21.9 | 1030 |
| B3 | 5 | 506 |
| B4 | 17.4 | 662 |
| B5 | 22.5 | 2390 |
| B6 | 35 | 3120 |
